Primed or numbered codes have the meaning given here. Where no end group is shown, it is not given here. The star is where a group is joined. 5FAM = O=C1OC2(c3ccc(O)cc3Oc3cc(O)ccc32)c2ccc(C(=O)*)cc21; PEG2′ = PEG spacer unit (glycol linker)

This is an account of results in patent publication US10507247B2, “Optical probes for matrix metalloproteinases” (The University Court of the University of Edinburgh, priority 2015, dated 2019).

The test system of experiment [1] is MMP-9. The experiment is described as follows: Enzyme assay, fold change in probe fluorescence over background with MMP-9. The conditions noted are these: different probe scaffolds (monomer, dendrimers); MMP-9 83 kDa. The format is biochemical, human. The procedure:
A library of probes (listed in Table 2 below) containing FAM (Carboxyfluorescein) as the fluorophore (donor) and MethylRed (MR) as the quencher (acceptor) and a variety of peptide sequences was synthesized by manual standard solid-phase Fmoc peptide chemistry (described below).
(§1) Enzyme specificity of the lead probes with exogenous enzymes was tested using a multiwell plate fluorimeter at excitation/emission 485/528 nm (Table 3). Recombinant human catalytic domain MMPs-1, -2, -3, -7, -8, -9, -10, -11, -12, -13 were used at 30 nM. Cleavage site for each sequence is indicated in italics.
(§2) The different compounds were also evaluated according to the fold change in fluorescent signal in presence of MMP-9 and MMP-13, and the results are shown in Table 7. From this comparison, the FRET dendrimers comprising SEQ ID NO.1 and SEQ ID NO.7 (AMF-106 and SVC-186) together with the 9Dendrimer comprising SEQ ID NO.7 (SVC-196) were chosen for further evaluation. These dendrimers are shown in FIG. 7, probe A (AMF-106), probe B (SVC-186) and probe C (SVC-196).
(§3) The enzyme assays were run in a 384-well format on a PCR opaque microplate (Thermo Scientific). All dilutions and reactions were prepared in MMP buffer (50 mM Tris, 10 mM CaCl2, 0.15M NaCl, 0.05% Brij-35, pH 7). Proteolytic activity was determined by calculating the fold change in fluorescence over background signal provided by the corresponding dilution of the probe and/or inhibitors with exogenous enzymes using a-multiwell plate fluorimeter (Synergy H1 Hybrid Reader, BioTek instruments Ltd) at excitation/emission 485/528 nm. Recombinant human MMPs (Catalytic domain MMP-1, -2, -3, -7, -8, -9, -10, -11, -12, -13 (Enzo Life Sciences) and Full-length MMP-2, -9, -12 and -13 (Merck/Millipore)) were used at 30 nM. Pro-MMP-13 (R & D Systems) was activated by incubating with 1 mM 4-aminophenylmercunc acetate (APMA) for 2 hrs at 37° C. Human neutrophil elastase (Elastase Product Company, used at 2.5 ug/ml), neutrophil lysate (lysed human neutrophils), and recombinant human Thrombin (Sigma-Aldrich, used at 5 U/ml), Plasmin (Sigma-Aldrich, used at 30 nM) and Factor Xa (Sigma-Aldrich, used at 0.5 μM) were used to identify the lead molecular probe sequences. For inhibition assays, enzyme and inhibitor were pre-incubated for 1 hr at 37° C. before the addition of molecular probe.

Experiment [2] concerns MMP-13. The experiment is described as follows: Enzyme assay, fold change in probe fluorescence over background with MMP-13. Type of experiment: biochemical, human. Particulars: different probe scaffolds (monomer, dendrimers); MMP-13 52 kDa. As to the method:
as §1, §2, §3

Experiment [3] deals with T1, human MMP-2 (Homo sapiens, UniProt P08253).
T1 sequence (P08253 110-660): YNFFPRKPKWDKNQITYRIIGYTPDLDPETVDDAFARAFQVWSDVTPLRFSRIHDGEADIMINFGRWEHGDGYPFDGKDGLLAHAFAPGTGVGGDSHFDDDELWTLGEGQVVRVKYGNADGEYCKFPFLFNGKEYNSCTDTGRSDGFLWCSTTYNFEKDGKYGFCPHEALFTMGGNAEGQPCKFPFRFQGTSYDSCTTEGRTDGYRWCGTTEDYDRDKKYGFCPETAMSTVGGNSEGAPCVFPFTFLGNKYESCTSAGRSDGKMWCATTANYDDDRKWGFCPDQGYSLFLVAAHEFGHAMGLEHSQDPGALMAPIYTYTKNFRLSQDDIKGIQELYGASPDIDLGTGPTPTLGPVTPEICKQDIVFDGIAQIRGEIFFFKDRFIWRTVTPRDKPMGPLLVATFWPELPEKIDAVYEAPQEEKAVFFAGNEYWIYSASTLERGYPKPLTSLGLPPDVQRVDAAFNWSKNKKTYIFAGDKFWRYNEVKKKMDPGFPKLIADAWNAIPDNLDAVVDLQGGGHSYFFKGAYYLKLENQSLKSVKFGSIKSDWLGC
Kind of experiment: Enzyme kinetics of the molecular probe, MMP-2. Type of experiment: biochemical. As to the method: (§4) Enzyme kinetics of the molecular probe specificity to human MMP-2, MMP-9, MMP-13 and plasmin. The kinetic constants KM and Vmax were calculated for probe A and B (Table 8 below).
as §3, with “For inhibition assays, enzyme and inhibitor were pre-incubated for 1 hr at 37° C. before the addition of molecular probe.” left out

Experiment [4] addresses human MMP-9 (Homo sapiens, UniProt P14780). The experiment is described as follows: Enzyme kinetics of the molecular probe, MMP-9. The format is biochemical. The procedure: as §4
as §3, with “For inhibition assays, enzyme and inhibitor were pre-incubated for 1 hr at 37° C. before the addition of molecular probe.” left out

Experiment [5] deals with MMP-13 (Homo sapiens, UniProt P45452). The experiment is described as follows: Enzyme kinetics of the molecular probe, MMP-13. Type of experiment: biochemical. As to the method:
as §4
as §3, with “For inhibition assays, enzyme and inhibitor were pre-incubated for 1 hr at 37° C. before the addition of molecular probe.” left out

For experiment [6], the target named is T2, plasmin (Homo sapiens, UniProt P00747).
T2 construct: purchased Sigma-Aldrich
T2 sequence (P00747 581-810 limits assumed): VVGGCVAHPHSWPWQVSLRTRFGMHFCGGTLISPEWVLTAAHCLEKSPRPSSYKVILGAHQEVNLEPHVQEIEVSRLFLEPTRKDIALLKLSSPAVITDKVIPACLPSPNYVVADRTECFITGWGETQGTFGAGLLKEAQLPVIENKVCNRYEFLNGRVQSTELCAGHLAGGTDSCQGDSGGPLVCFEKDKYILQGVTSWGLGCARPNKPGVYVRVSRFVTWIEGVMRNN
T2 sequence (P00747 97-580 partner limits assumed): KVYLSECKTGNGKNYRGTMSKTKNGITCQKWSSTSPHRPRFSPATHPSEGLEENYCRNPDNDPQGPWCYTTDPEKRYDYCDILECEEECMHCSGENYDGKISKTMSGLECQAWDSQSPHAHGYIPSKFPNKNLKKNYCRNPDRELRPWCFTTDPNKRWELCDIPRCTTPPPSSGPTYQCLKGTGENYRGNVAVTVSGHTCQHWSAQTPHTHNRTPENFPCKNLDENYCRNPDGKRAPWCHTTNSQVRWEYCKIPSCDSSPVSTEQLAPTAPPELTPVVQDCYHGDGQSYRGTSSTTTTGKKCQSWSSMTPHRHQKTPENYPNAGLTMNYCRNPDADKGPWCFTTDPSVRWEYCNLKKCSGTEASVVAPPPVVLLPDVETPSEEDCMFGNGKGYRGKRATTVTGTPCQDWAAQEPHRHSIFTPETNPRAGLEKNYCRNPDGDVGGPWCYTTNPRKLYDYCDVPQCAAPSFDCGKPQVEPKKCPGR
The experiment is described as follows: Enzyme kinetics of the molecular probe, plasmin. The format is biochemical. As to the method:
as §4
as §3, with “For inhibition assays, enzyme and inhibitor were pre-incubated for 1 hr at 37° C. before the addition of molecular probe.” left out

For experiment [7], the target named is T2, plasmin. The experiment is described as follows: Susceptibility / stability of probes to plasmin. Type of experiment: biochemical. The procedure: (§5) FIG. 8. Enzyme specificity of the FRET branched probes A, B and C. Data represents the average fold change in fluorescence over background signal provided by probe (10 μM) with exogenous enzymes using a multiwell plate fluorimeter (Synergy H1 Hybrid Reader, BioTek instruments Ltd) at excitation/emission 485/528 nm. Recombinant human catalytic domain MMPs-1, -2, -3, -7, -8, -9, -10, -11, -12, -13 were used at 30 nM. Recombinant human Thrombin, Plasmin and Factor Xa were used at 5 U/ml, 30 nM, 0.5 μM, respectively.
Also, to reduce degradation without altering the amino acid constituents we have synthesised variants including PEG units at the amino and/or carboxy termini in order to block degradation from the ends of the peptide sequence.
(§6) Three selected probes (A: AMF-106, B: SVC-186 B, and C: SVC-196) were evaluated in vitro in a new experiment including other members of the MMP family (MMPs-1, -2, -3, -7, -8, -9, -10, -11, -12, -13) as well as Thrombin, Plasmin and Factor Xa, and the results are shown in FIG. 8. […] The plasmin cleavage site was identified and attempts to make a resistant version replacing with D-aa in these positions were unsuccessful.
as §3, with “Human neutrophil elastase (Elastase Product Company, used at 2.5 ug/ml), neutrophil lysate (lysed human neutrophils), and recombinant human Thrombin (Sigma-Aldrich, used at 5 U/ml), Plasmin (Sigma-Aldrich, used at 30 nM) and Factor Xa (Sigma-Aldrich, used at 0.5 μM) were used to identify the lead molecular probe sequences. For inhibition assays, enzyme and inhibitor were pre-incubated for 1 hr at 37° C. before the addition of molecular probe.” left out

Experiment [8] deals with MMPs-1, -2, -3, -7, -8, -9, -10, -11, -12, -13, Thrombin, Plasmin and Factor Xa. Kind of experiment: Enzyme specificity of the FRET branched probes with exogenous enzymes (FIG. 8). The format is biochemical, human. The conditions noted are these: probe 10 μM; MMPs 30 nM; Thrombin 5 U/ml, Plasmin 30 nM, Factor Xa 0.5 μM. As to the method:
as §5, §6, §3

Chain of human MMP-9 (P14780 94-707): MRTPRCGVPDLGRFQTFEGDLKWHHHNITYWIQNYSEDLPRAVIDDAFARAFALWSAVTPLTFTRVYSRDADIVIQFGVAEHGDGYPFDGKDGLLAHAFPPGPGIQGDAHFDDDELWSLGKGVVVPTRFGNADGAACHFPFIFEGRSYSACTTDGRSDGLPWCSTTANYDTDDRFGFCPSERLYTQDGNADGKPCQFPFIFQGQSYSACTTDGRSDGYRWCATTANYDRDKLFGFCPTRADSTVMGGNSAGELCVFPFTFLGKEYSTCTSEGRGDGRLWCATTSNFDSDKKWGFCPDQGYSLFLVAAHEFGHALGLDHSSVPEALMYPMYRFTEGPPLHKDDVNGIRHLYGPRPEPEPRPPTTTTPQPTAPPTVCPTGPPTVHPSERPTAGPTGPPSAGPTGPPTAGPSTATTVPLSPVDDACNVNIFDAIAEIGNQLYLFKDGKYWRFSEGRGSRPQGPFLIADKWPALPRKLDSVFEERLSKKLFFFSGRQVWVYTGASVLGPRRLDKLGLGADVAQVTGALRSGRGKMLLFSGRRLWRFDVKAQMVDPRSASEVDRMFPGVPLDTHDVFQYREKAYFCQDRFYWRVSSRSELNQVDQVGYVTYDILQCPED

As a reminder, the Km is the substrate concentration at which the rate is half of its maximum. “FAM-PEG2-G-P-K-G-L-K-G-K(MR)-PEG2-k-PEG2-k-3 probe elements ({5FAM-PEG2′}-GPKGLKG; not fully specified (C-terminus); also: three probe elements on a scaffold) [AMF-106]”: the “MMP-9 (83 kDa), fold change in fluorescent signal” value in experiment [1] is 11.20. Moreover, the “MMP-13 (52 kDa), fold change in fluorescent signal” value in experiment [2] was found to be 34.52. For the same substance, the Km in experiment [3] was 0.06 µM; in experiment [4] it was 0.53 µM; in experiment [5], 0.22 µM; in experiment [6], 0.36 µM. Moreover, the “stability / susceptibility to plasmin” value in experiment [7] was “susceptible to plasmin”. Also, the “selectivity for MMP-2/9” value in experiment [8] is reported as “better selectivity for MMP-2/9”.
